Target: human CCR5 (human) (UniProt P51681)
Experiment: cell-based or functional assay

Chain of human CCR5 (human) (P51681 whole entry): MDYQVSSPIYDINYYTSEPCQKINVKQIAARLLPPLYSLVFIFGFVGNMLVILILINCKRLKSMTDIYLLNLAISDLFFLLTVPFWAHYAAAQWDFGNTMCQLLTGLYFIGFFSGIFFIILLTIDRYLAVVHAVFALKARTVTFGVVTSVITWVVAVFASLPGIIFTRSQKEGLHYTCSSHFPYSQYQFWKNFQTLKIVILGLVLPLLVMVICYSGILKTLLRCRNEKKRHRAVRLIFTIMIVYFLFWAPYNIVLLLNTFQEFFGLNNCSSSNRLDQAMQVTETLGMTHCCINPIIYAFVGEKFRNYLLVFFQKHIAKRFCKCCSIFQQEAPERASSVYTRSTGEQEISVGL

CCR5 receptor downmodulation on CHO cells expressing CCR5 (FACS) at 1 nM AOP-RANTES: 50%
CCR5 receptor downmodulation on CHO cells expressing CCR5 (FACS) at 100 nM AOP-RANTES: 90%
Substance: AOP-RANTES (from UniProt P13501 24-91) (ligand)

From patent US20060078537A1
